T1: human CLDN6 (Claudin 6) (human, UniProt P56747 1-220)
T1 construct: whole, on cells; Target presented on NUGC-3 cells that express CLDN6; also called hCLDN6
T1 sequence (looked up): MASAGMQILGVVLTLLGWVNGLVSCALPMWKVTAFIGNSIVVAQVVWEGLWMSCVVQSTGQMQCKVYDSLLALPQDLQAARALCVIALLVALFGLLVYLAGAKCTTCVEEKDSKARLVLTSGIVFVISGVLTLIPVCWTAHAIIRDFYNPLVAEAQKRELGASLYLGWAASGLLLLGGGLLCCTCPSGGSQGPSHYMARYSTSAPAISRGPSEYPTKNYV

B1: humanized anti-CLDN6 antibody Ab1 (antibody, human IgG1, kappa, V domains shown)
VH: QVQLVESGGGVVQPGGSLRLSCKASGYSFTGYTMNWVRQAPGKGLEWVGLINPYNGGTIYNQKFKGRFTLSVDKSKSTAYLQMNSLRAEDTAVYYCARDYGFVLDYWGRGTLVTVSS
VL: DIQLTQSPSSLSASVGDRVTITCSASSSVSYLHWFQQKPGKAPKLLVYSTSNLPSGVPSRFSGSGSGTDYTLTISSLQPEDFATYYCQQRSIYPPWTFGQGTKLEIKR
notes: Humanized from mouse anti-CLDN6 antibody GT512muMAB 64A or 61D (WO 2011/057788), expressed in ExpiCHO-S cells; Tested as the naked antibody
B2: humanized anti-CLDN6 antibody Ab2 (antibody, human IgG1, kappa, V domains shown)
VH: QVQLVESGGGVVQPGGSLRLSCKASGYSFTGYTMNWVRQAPGKGLEWVGLINPYNGGTIYNQKFKGRFTLSVDKSKSTAYLQMNSLRAEDTAVYYCARDYGYVLDYWGRGTLVTVSS
VL: DIQLTQSPSSLSASVGDRVTITCSASSSVSYLHWFQQKPGKAPKLLVYSTSNLPSGVPSRFSGSGSGTDYTLTISSLQPEDFATYYCQQRSIYPPWTFGQGTKLEIKR
notes: Tested as the naked antibody

Target: T1, human CLDN6 (Claudin 6)
Experiment: flow cytometry on NUGC-3 cells expressing CLDN6, antibody 1 ng/mL to 25 µg/mL, PE anti-human IgG detection, gMFI
Description: The cells of human gastric cancer cell line NUGC-3 (JCRB cell bank) expressing CLDN6 were suspended with PBS (Wako, #045-29795) containing 5% FBS so as to have a concentration of 1×10⁶ cells/mL. The suspension was seeded (added) in the wells of a 96-well V-bottom microplate at a rate of 100 μL/well. After centrifugation, the supernatant was removed. AbM: antibody comprising a heavy chain, aCLDN6-VH—CH₁—CH₂—CH₃ and a light chain, aCLDN6-VL-CL, disclosed in International Publication No. WO2022/058298. Ab0, Ab1 and Ab2 were suspended with 5% FBS-containing PBS such that the concentrations fall in the range of 1 ng/mL to 25 μg/mL (12 dilution series were prepared by serial dilution at a 2.5-fold dilution rate from 25 μg/mL to 1 ng/mL). The suspensions were added at a rate of 100 μL/well and allowed to stand still at 4° C. for one hour. […] A histogram of PE (phycoerythrin) fluorescence intensity of viable cell fractions was prepared and geometric mean fluorescence intensity (gMFI) was calculated. gMFI values were plotted to make a graph by GraphPad Prism (company: GraphPad Software). […]

Binder	binding result
B1	binds
B2	binds
